This is an account of results in publication PMC8016844.

In one assay the target is Grb2 (Homo sapiens) (UniProt P62993). The following applies: cited from earlier work.
For assay [1], the target named is isolated CSH3 domain of Grb2 (Grb2_(CSH3)). Briefly: MST; target protein labelled with Atto 488 NHS ester, 100 nM; unlabelled ligand serially diluted; Monolith NT.115; 25 °C; 20 mM HEPES pH 7.5, 150 mM NaCl, 0.5 mM TCEP, 0.005% Tween 20.
The target in assay [2] is Shp2 N-terminal SH2 domain (Shp2_(NSH2)) (UniProt Q06124). Described as above.

As a reminder, the Kd is a measure of binding affinity in units of concentration. Take Grb2 (from UniProt P62993): the Kd in the assay with Grb2 (Homo sapiens) was 0.8 µM.

On to “Shp2 PTP domain peptide TKCNNS322KPKK325SYIATQ”, for which, in assay [1], the Kd was 173 µM.

Substance “Shp2 PTP domain peptide VERGKS366KCVK369YWPDEY” came in with a Kd in assay [1] of 122 µM.

In turn, “Shp2 PTP domain peptide WPDHGV429PSDP432GGVLDF” showed a Kd in assay [1] of 18.1 µM.

Substance “isolated CSH3 domain of Grb2 (Grb2_(CSH3)) (domain or fragment)” registered a Kd in assay [2] of 207 µM.
